Experimental data published in patent publication US20130040894A1, “INHIBITION OR ACTIVATION OF SERINE/THREONINE ULK3 KINASE ACTIVITY” (TALLINN UNIVERSITY OF TECHNOLOGY, priority 2009, published 2013).

Key:
FLAG-tagged GLI3, P10071 = biological target: T1, FLAG-tagged GLI3, P10071
T1 chain: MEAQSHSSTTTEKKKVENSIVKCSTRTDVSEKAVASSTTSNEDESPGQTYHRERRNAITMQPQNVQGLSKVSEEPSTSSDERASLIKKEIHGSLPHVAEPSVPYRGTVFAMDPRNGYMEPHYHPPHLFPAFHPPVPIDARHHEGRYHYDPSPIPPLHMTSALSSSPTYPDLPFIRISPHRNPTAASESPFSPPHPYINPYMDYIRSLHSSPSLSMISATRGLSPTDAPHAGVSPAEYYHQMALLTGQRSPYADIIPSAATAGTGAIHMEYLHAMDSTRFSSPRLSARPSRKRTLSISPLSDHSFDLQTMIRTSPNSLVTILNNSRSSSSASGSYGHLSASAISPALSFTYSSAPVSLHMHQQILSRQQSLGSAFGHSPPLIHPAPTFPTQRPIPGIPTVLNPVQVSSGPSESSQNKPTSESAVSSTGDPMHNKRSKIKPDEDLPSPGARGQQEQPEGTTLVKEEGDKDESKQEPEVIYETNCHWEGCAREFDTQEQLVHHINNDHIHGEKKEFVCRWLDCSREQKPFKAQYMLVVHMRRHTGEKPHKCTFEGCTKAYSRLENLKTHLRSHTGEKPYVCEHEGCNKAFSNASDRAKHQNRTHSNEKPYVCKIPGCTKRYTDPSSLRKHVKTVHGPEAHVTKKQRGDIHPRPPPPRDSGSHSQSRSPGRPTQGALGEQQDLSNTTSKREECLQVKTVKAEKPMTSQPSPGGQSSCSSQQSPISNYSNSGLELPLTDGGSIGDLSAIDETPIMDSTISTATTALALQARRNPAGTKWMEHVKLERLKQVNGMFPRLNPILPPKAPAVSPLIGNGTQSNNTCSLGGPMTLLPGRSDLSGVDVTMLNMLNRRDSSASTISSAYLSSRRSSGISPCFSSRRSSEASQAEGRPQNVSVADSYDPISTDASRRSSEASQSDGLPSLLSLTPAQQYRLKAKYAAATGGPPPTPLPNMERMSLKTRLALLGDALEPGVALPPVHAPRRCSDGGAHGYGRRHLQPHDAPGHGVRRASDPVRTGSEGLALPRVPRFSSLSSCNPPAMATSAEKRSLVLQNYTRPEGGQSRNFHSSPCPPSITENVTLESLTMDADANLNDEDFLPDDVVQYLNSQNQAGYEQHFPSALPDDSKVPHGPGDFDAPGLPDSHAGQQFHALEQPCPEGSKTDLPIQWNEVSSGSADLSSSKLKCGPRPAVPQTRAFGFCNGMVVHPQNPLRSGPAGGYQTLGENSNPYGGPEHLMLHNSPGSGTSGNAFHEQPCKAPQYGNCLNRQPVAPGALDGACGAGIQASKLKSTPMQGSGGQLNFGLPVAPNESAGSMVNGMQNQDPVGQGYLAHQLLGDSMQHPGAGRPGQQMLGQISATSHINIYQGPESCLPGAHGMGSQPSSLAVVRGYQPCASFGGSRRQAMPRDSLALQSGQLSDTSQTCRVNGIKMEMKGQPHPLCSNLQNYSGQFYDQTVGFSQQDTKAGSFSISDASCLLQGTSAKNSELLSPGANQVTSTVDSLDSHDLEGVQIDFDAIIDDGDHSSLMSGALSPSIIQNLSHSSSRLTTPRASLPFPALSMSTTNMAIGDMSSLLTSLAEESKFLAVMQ

[1] = biological target: T2, His-tagged GLI1 fragment, amino acids 726-1106
T2 chain: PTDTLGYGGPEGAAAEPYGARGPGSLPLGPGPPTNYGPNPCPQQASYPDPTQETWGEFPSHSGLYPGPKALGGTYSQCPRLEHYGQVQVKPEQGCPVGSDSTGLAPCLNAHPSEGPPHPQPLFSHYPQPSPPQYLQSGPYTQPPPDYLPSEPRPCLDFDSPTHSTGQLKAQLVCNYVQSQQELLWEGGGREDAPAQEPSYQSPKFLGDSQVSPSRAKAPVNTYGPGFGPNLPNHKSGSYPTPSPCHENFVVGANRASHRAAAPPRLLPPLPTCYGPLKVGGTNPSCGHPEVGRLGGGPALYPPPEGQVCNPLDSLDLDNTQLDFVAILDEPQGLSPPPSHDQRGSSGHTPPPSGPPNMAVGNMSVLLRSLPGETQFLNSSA

B1: FLAG-tagged wild-type ULK3 (human serine/threonine kinase ULK3) (protein)
chain: MAGPGWGPPRLDGFILTERLGSGTYATVYKAYAKKDTREVVAIKCVAKKSLNKASVENLLTEIEILKGIRHPHIVQLKDFQWDSDNIYLIMEFCAGGDLSRFIHTRRILPEKVARVFMQQLASALQFLHERNISHLDLKPQNILLSSLEKPHLKLADFGFAQHMSPWDEKHVLRGSPLYMAPEMVCQRQYDARVDLWSMGVILYEALFGQPPFASRSFSELEEKIRSNRVIELPLRPLLSRDCRDLLQRLLERDPSRRISFQDFFAHPWVDLEHMPSGESLGRATALVVQAVKKDQEGDSAAALSLYCKALDFFVPALHYEVDAQRKEAIKAKVGQYVSRAEELKAIVSSSNQALLRQGTSARDLLREMARDKPRLLAALEVASAAMAKEEAAGGEQDALDLYQHSLGELLLLLAAEPPGRRRELLHTEVQNLMARAEYLKEQVKMRESRWEADTLDKEGLSESVRSSCTLQ
FLAG-tagged GLI3, P10071
  in vitro kinase assay, phosphorylation signal (32P autoradiography): GLI1 and GLI3 were also phosphorylated by ULK3, but with significantly lower intensity as compared to GLI2
[1]
  in vitro kinase assay, phosphorylation of a His-tagged GLI1 fragment: Two of them-GLI1(1-433) and GLI1(726-1106)-were phosphorylated by ULK3
